Where no end group is shown, it is not given here. [ ]: non-standard residue; d: D form. pT = C[C@@H](OP(=O)(O)O)[C@H](N)C(=O)O; NMeE = CN[C@@H](CCC(=O)O)C(=O)O; pS = N[C@@H](COP(=O)(O)O)C(=O)O; NMeD = CN[C@@H](CC(=O)O)C(=O)O
These substances were tested against FBXW7 (Homo sapiens, UniProt Q969H0) (assay: Peptides immobilised on membranes screened for the ability to bind FBXW7).
Format: binding
Description: Peptides derived from DISC1 and containing the putative phospho-degron motif were immobilised on membranes and screened for the ability to bind FBXW7. […] (SEQ ID NO: 114).
The 7-mer peptide P-pT-P-P-G-pS-H (SEQ ID NO: 21) was used as the basis for further investigation. L- and D-forms of aspartic acid and glutamic acid (upper and lower case letters respectively) as well as N-methylated versions of each (designated “m”) were incorporated at positions 198 and 202.

Sequence of FBXW7 (Q969H0 whole entry): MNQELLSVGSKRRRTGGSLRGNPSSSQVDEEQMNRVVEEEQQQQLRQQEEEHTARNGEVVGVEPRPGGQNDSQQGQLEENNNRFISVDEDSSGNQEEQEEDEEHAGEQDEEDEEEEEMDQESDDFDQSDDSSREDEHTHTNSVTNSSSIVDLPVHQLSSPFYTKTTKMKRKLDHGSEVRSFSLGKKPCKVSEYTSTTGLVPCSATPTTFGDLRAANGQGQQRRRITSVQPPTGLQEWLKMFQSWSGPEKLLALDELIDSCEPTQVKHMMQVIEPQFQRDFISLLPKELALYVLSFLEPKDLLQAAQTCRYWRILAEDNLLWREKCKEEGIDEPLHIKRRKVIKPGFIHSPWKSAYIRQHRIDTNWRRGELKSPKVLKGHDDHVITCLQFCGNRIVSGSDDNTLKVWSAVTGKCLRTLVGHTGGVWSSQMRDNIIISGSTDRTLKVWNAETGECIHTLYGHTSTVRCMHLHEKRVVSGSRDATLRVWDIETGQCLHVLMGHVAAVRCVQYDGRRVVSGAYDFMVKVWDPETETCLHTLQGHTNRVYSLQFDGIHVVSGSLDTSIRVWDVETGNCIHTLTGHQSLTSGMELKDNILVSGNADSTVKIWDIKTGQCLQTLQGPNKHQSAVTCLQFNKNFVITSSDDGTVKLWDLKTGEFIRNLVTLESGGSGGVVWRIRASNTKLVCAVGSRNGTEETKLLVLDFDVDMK

Substance | binding to FBXW7
G-mD-P-p-G-mE-H (G[NMeD]P[dP]G[NMeE]H) [Peptide A56] | retain or have improved binding to FBXW7
L-mD-P-P-G-mE-H (L[NMeD]PPG[NMeE]H) [Peptide A58] | retain or have improved binding to FBXW7
a-d-P-p-a-mE-h ([dA][dD]P[dP][dA][NMeE][dH]) [Peptide A168] | retain or have improved binding to FBXW7
a-d-P-P-a-mE-H ([dA][dD]PP[dA][NMeE]H) [Peptide A166] | retain or have improved binding to FBXW7
a-d-p-p-G-mE-H ([dA][dD][dP][dP]G[NMeE]H) [Peptide A163] | retain or have improved binding to FBXW7
P-E-P-P-G-mD-H (PEPPG[NMeD]H) [Peptide 64] | retain or have improved binding to FBXW7
a-d-P-P-a-mE-k ([dA][dD]PP[dA][NMeE][dK]) [Peptide A197] | retain or have improved binding to FBXW7
P-P-G-mE-H (PPG[NMeE]H) [Peptide A189] | retain or have improved binding to FBXW7
G-mE-P-P-q-mE-H (G[NMeE]PP[dQ][NMeE]H) [Peptide A73] | retain or have improved binding to FBXW7
P-pT-P-P-G-pS-H [A80] (P[pT]PPG[pS]H) [Peptide A80] | retain or have improved binding to FBXW7
P-pT-P-P-G-pS-H [A100] (P[pT]PPG[pS]H) [Peptide A100] | retain or have improved binding to FBXW7
a-d-p-p-a-mE-h ([dA][dD][dP][dP][dA][NMeE][dH]) [Peptide A169] | retain or have improved binding to FBXW7
P-d-P-P-G-mE-k (P[dD]PPG[NMeE][dK]) [Peptide A195] | retain or have improved binding to FBXW7
P-E-P-P-G-d-H (PEPPG[dD]H) [Peptide 16] | retain or have improved binding to FBXW7
G-mE-P-p-G-mE-H (G[NMeE]P[dP]G[NMeE]H) [Peptide A76] | retain or have improved binding to FBXW7
a-d-P-P-a-mE-h ([dA][dD]PP[dA][NMeE][dH]) [Peptide A165] | retain or have improved binding to FBXW7
P-A-P-P-G-mD-H (PAPPG[NMeD]H) [Peptide A102] | retain or have improved binding to FBXW7
G-d-P-A-G-mE-K (G[dD]PAG[NMeE]K) [Peptide A192] | retain or have improved binding to FBXW7
a-d-p-P-G-mE-H ([dA][dD][dP]PG[NMeE]H) [Peptide A162] | retain or have improved binding to FBXW7
P-pT-P-P-G-pS-H [A119] (P[pT]PPG[pS]H) [Peptide A119] | retain or have improved binding to FBXW7
a-d-P-P-G-mE-h ([dA][dD]PPG[NMeE][dH]) [Peptide A164] | retain or have improved binding to FBXW7
G-d-P-P-a-mE-k (G[dD]PP[dA][NMeE][dK]) [Peptide A196] | retain or have improved binding to FBXW7
a-mE-P-P-G-mE-H ([dA][NMeE]PPG[NMeE]H) [Peptide A71] | retain or have improved binding to FBXW7

Substance | binding to FBXW7
a-mD-P-P-G-mE-H ([dA][NMeD]PPG[NMeE]H) [Peptide A51] | retain or have improved binding to FBXW7
P-pT-P-P-G-pS-H [A185] (P[pT]PPG[pS]H) [Peptide A185] | retain or have improved binding to FBXW7
G-mD-P-P-Q-mE-H (G[NMeD]PPQ[NMeE]H) [Peptide A52] | retain or have improved binding to FBXW7
P-d-P-P-G-mE (P[dD]PPG[NMeE]) [Peptide A85] | retain or have improved binding to FBXW7
P-d-P-P-G-mE-H (P[dD]PPG[NMeE]H) [Peptide 82] | retain or have improved binding to FBXW7
P-pT-P-P-G-pS-H [P-pT-P-P-G-pS-H] (P[pT]PPG[pS]H) | retain the ability to bind FBXW7
G-d-P-P-G-mE [Peptide A5] | retain or have improved binding to FBXW7
G-d-P-P-q-mE-H (G[dD]PP[dQ][NMeE]H) [Peptide A13] | retain or have improved binding to FBXW7
GPEVPPTPPGSHSAFTSSFSFIRL (listed as Homo sapiens) | Detectable binding
a-e-P-P-G-mE-H ([dA][dE]PPG[NMeE]H) [Peptide A130] | retain or have improved binding to FBXW7
P-pT-P-P-G-pS-H [A139] (P[pT]PPG[pS]H) [Peptide A139] | retain or have improved binding to FBXW7
d-P-P-G-mE-H ([dD]PPG[NMeE]H) [Peptide A86] | retain or have improved binding to FBXW7
P-d-P-P-G-mE-K (P[dD]PPG[NMeE]K) [Peptide A194] | retain or have improved binding to FBXW7
G-d-P-P-G-mE-H (G[dD]PPG[NMeE]H) [Peptide 173] | retain or have improved binding to FBXW7
G-mD-P-P-G-mE (G[NMeD]PPG[NMeE]) [Peptide A45] | retain or have improved binding to FBXW7
a-d-P-p-G-mE-H ([dA][dD]P[dP]G[NMeE]H) [Peptide A161] | retain or have improved binding to FBXW7
P-E-P-P-G-mD (PEPPG[NMeD]) [Peptide A144] | retain or have improved binding to FBXW7
G-d-P-P-Q-mE-H (G[dD]PPQ[NMeE]H) [Peptide A12] | retain or have improved binding to FBXW7
G-A-P-P-G-mE-H (GAPPG[NMeE]H) [Peptide A22] | retain or have improved binding to FBXW7
P-E-P-P-Q-mD-H (PEPPQ[NMeD]H) [Peptide A151] | retain or have improved binding to FBXW7
P-A-P-P-G-mE-H (PAPPG[NMeE]H) [Peptide A82] | retain or have improved binding to FBXW7
L-d-P-P-G-mE-H (L[dD]PPG[NMeE]H) [Peptide A98] | retain or have improved binding to FBXW7

More lines, now with the values ahead:

binding to FBXW7 | Substance
retain or have improved binding to FBXW7 | P-e-P-P-G-mE-H (P[dE]PPG[NMeE]H) [Peptide 55]
retain or have improved binding to FBXW7 | G-e-P-P-G-mE-H (G[dE]PPG[NMeE]H) [Peptide 147]
retain or have improved binding to FBXW7 | G-d-p-p-a-mE-H (G[dD][dP][dP][dA][NMeE]H) [Peptide A173]
retain or have improved binding to FBXW7 | P-e-P-P-Q-mE-H (P[dE]PPQ[NMeE]H) [Peptide A131]
retain or have improved binding to FBXW7 | L-e-P-P-G-mE-H (L[dE]PPG[NMeE]H) [Peptide A137]
retain the ability to bind FBXW7 | P-pT-P-P-G-pS-H-S (P[pT]PPG[pS]HS)
retain or have improved binding to FBXW7 | G-d-P-p-a-mE-H (G[dD]P[dP][dA][NMeE]H) [Peptide A170]
retain or have improved binding to FBXW7 | P-d-p-P-G-mE-H (P[dD][dP]PG[NMeE]H) [Peptide A97]
retain or have improved binding to FBXW7 | p-d-P-P-G-mE-h ([dP][dD]PPG[NMeE][dH]) [Peptide A184]
retain or have improved binding to FBXW7 | p-d-P-P-G-mE-H ([dP][dD]PPG[NMeE]H) [Peptide A181]
retain or have improved binding to FBXW7 | l-e-P-P-G-mE-H ([dL][dE]PPG[NMeE]H) [Peptide A138]
retain or have improved binding to FBXW7 | P-e-p-P-G-mE-H (P[dE][dP]PG[NMeE]H) [Peptide A136]
retain or have improved binding to FBXW7 | G-d-P-a-G-mE-k (G[dD]P[dA]G[NMeE][dK]) [Peptide A193]
retain or have improved binding to FBXW7 | G-d-p-P-G-mE-H (G[dD][dP]PG[NMeE]H) [Peptide A180]
retain or have improved binding to FBXW7 | G-d-P-p-a-mE-h (G[dD]P[dP][dA][NMeE][dH]) [Peptide A171]
retain or have improved binding to FBXW7 | P-e-P-P-G-mD-H (P[dE]PPG[NMeD]H) [Peptide A101]
retain or have improved binding to FBXW7 | G-e-P-P-G-mE (G[dE]PPG[NMeE]) [Peptide A25]
retain or have improved binding to FBXW7 | l-mE-P-P-G-mE-H ([dL][NMeE]PPG[NMeE]H) [Peptide A79]
retain or have improved binding to FBXW7 | e-P-P-G-mE-H ([dE]PPG[NMeE]H) [Peptide A26]
retain or have improved binding to FBXW7 | l-d-P-P-G-mE-H ([dL][dD]PPG[NMeE]H) [Peptide A99]
retain the ability to bind FBXW7 | P-P-pT-P-P-G-pS-H (PP[pT]PPG[pS]H)
retain or have improved binding to FBXW7 | P-e-P-P-q-mE-H (P[dE]PP[dQ][NMeE]H) [Peptide A132]
retain or have improved binding to FBXW7 | G-d-p-p-G-mE-H (G[dD][dP][dP]G[NMeE]H) [Peptide A172]
retain or have improved binding to FBXW7 | P-e-P-p-G-mE-H (P[dE]P[dP]G[NMeE]H) [Peptide A135]
retain or have improved binding to FBXW7 | P-e-P-P-G-mE (P[dE]PPG[NMeE]) [Peptide A124]
retain or have improved binding to FBXW7 | G-d-p-p-a-mE-h (G[dD][dP][dP][dA][NMeE][dH]) [Peptide A175]
retain or have improved binding to FBXW7 | G-d-p-p-G-mE-h (G[dD][dP][dP]G[NMeE][dH]) [Peptide A174]

Source: patent US9981005B2, “Methods for increasing DISC1 in a subject with schizophrenia or bipolar disorder by an antagonist inhibiting DISC1 binding to FBXW7” (The University Court of the University of Glasgow, priority 2013, dated 2018)
